One substance from paper doi:10.1101/2021.01.28.428596 can be followed below.

The target in the experiment is RIR1-GFP (ProRIR1:RIR1-GFP in the rir1-1 mutant) (Arabidopsis thaliana) (UniProt C0LGG9). Nature of the experiment: FRET or BRET. (In general: In BRET a luciferase serves as donor, and the signal depends on an acceptor being close.)
UniProt C0LGG9, sequence (C0LGG9 27-1035, change not shown): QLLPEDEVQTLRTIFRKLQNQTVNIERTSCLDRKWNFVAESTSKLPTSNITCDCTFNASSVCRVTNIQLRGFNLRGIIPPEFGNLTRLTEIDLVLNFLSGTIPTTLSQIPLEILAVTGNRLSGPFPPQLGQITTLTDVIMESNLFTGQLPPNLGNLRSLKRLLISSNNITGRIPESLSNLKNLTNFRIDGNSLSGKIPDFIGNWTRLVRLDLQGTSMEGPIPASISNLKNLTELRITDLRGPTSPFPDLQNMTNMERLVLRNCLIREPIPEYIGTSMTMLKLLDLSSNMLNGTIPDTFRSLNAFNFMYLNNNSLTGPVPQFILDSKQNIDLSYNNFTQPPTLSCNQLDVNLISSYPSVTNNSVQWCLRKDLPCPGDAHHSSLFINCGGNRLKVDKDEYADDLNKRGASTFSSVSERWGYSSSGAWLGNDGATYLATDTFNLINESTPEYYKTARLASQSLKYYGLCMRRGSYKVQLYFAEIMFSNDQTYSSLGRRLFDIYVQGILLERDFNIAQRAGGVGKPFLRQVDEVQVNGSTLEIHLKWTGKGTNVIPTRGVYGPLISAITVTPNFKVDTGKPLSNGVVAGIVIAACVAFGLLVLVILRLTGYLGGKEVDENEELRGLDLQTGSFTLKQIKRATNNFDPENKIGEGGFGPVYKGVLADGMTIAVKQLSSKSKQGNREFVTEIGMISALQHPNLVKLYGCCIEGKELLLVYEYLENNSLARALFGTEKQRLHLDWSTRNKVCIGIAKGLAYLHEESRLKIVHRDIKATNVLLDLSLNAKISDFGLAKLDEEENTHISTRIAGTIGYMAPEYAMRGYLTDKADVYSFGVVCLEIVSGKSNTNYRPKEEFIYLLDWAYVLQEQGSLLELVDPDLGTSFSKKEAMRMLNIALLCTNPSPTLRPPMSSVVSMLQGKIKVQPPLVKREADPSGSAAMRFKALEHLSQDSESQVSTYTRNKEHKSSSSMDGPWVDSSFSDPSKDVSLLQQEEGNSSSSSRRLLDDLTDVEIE

Take “mCherry-REM1.2 (ProREM1.2-mCherry-REM1.2 in rir1-1/RIR1-GFP#3) (from UniProt P0CAP4 1-446) (natural protein)”: the GFP donor fluorescence lifetime with acceptor (τDA) was found to be 2.21 ns.
